Seven molecules from article PMC314469, “Protein Interaction Networks by Proteome Peptide Scanning” (PLoS Biology, 2004) can be followed below.

Sequences and labels used below:
T1: Rvs167 SH3 (RV167_YEAST), P39743
T1 chain: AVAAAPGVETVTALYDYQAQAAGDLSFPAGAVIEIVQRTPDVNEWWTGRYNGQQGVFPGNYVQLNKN

T2: Boi1 SH3 (BOI1_YEAST), P38041
T2 chain: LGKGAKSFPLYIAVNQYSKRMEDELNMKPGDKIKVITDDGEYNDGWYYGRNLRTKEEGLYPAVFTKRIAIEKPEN

T3: Yfr024 SH3 (LSB3_YEAST), P43603
T3 chain: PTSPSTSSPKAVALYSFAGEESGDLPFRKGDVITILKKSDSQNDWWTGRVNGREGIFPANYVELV

T4: Myo5 SH3 (MYO5_YEAST), Q04439
T4 chain: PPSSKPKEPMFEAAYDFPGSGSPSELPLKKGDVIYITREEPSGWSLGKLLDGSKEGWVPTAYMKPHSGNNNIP

T5: Boi2 SH3 (BOI2_YEAST), P39969
T5 chain: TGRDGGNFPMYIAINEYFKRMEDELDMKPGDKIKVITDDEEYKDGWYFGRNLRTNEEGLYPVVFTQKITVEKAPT

T6: Yhr016c SH3 (YSC84_YEAST), P32793
T6 chain: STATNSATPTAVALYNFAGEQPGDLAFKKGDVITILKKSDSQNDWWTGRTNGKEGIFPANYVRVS

B1: YKL089W 339-352 (peptide)
chain: KQKKKPTPTRPYNY
B2: YKL032C 354-367 (peptide)
chain: KQLKKQGPKRPSSA
B3: YBR270C 208-221 (peptide)
chain: KMAKKLLPYKPHNS
B4: YLR337C 698-711 (peptide)
chain: KNPTKSPPPPPSPS
B5: YDR339C 161-174 (peptide)
chain: KQRIRKIPGIPLMS
B6: YLR142W 425-438 (peptide)
chain: KNIIKYVPWGPPLE
B7: YDR406W 496-509 (peptide)
chain: KQAKRAPPSSPYVV

Sho1 SH3 (SHO1_YEAST), P40073, sequence (P40073 295-366): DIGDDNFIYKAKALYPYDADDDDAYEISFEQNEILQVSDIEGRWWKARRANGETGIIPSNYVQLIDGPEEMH

One assay concerns the target Sho1 SH3 (SHO1_YEAST), P40073. The assay is described as follows: SPOT array.
For B1, the normalised SPOT signal, Boehringer light units (BLU); mean over the file's lines of this peptide worked out at 97.1.

B2 returned a normalised SPOT signal, Boehringer light units (BLU); mean over the file's lines of this peptide of 151.

Regarding B3, the normalised SPOT signal, Boehringer light units (BLU); mean over the file's lines of this peptide is 522.

In turn, B4 returned a normalised SPOT signal, Boehringer light units (BLU); mean over the file's lines of this peptide of 0.

In turn, B5 showed a normalised SPOT signal, Boehringer light units (BLU); mean over the file's lines of this peptide of 179.

In the case of B6, the normalised SPOT signal, Boehringer light units (BLU); mean over the file's lines of this peptide stood at 33.3.

The molecule B7 registered a normalised SPOT signal, Boehringer light units (BLU); mean over the file's lines of this peptide of 127.

The next assay deals with T1, Rvs167 SH3 (RV167_YEAST), P39743. The assay is described as follows: SPOT array.
In the case of B1, the normalised SPOT signal, Boehringer light units (BLU); mean over the file's lines of this peptide was 31.6.

B2: the normalised SPOT signal, Boehringer light units (BLU); mean over the file's lines of this peptide worked out at 80.4.

Consider B3, for which the normalised SPOT signal, Boehringer light units (BLU); mean over the file's lines of this peptide worked out at 37.6.

B4 registered a normalised SPOT signal, Boehringer light units (BLU); mean over the file's lines of this peptide of 41.

As to B5, the normalised SPOT signal, Boehringer light units (BLU); mean over the file's lines of this peptide is 3830.

On to B6, for which the normalised SPOT signal, Boehringer light units (BLU); mean over the file's lines of this peptide amounted to 16.2.

Take B7: the normalised SPOT signal, Boehringer light units (BLU); mean over the file's lines of this peptide came to 19.4.

For a further assay, the target named is T2, Boi1 SH3 (BOI1_YEAST), P38041. The assay is described as follows: SPOT array.
Turning to B1, the normalised SPOT signal, Boehringer light units (BLU); mean over the file's lines of this peptide worked out at 33.6.

For the molecule B2, the normalised SPOT signal, Boehringer light units (BLU); mean over the file's lines of this peptide came to 767.

In turn, B3 registered a normalised SPOT signal, Boehringer light units (BLU); mean over the file's lines of this peptide of 156.

B4 registered a normalised SPOT signal, Boehringer light units (BLU); mean over the file's lines of this peptide of 36.2.

Turning to B5, the normalised SPOT signal, Boehringer light units (BLU); mean over the file's lines of this peptide was 800.

In turn, B6 came in with a normalised SPOT signal, Boehringer light units (BLU); mean over the file's lines of this peptide of 0.

As for B7, the normalised SPOT signal, Boehringer light units (BLU); mean over the file's lines of this peptide was 470.

A further assay has as its target T3, Yfr024 SH3 (LSB3_YEAST), P43603. The assay is described as follows: SPOT array.
With B1, the normalised SPOT signal, Boehringer light units (BLU); mean over the file's lines of this peptide came to 680.

Turning to B2, the normalised SPOT signal, Boehringer light units (BLU); mean over the file's lines of this peptide amounted to 751.

On to B3, for which the normalised SPOT signal, Boehringer light units (BLU); mean over the file's lines of this peptide turned out to be 182.

With B4, the normalised SPOT signal, Boehringer light units (BLU); mean over the file's lines of this peptide came out at 74.8.

For the molecule B5, the normalised SPOT signal, Boehringer light units (BLU); mean over the file's lines of this peptide came to 12300.

The molecule B6 registered a normalised SPOT signal, Boehringer light units (BLU); mean over the file's lines of this peptide of 1.3.

B7 had a normalised SPOT signal, Boehringer light units (BLU); mean over the file's lines of this peptide of 152.

The next assay concerns the target T4, Myo5 SH3 (MYO5_YEAST), Q04439. The experiment in a line: SPOT array.
On to B1, for which the normalised SPOT signal, Boehringer light units (BLU); mean over the file's lines of this peptide was determined as 516.

In turn, B2 registered a normalised SPOT signal, Boehringer light units (BLU); mean over the file's lines of this peptide of 468.

Molecule B3 showed a normalised SPOT signal, Boehringer light units (BLU); mean over the file's lines of this peptide of 708.

B4 registered a normalised SPOT signal, Boehringer light units (BLU); mean over the file's lines of this peptide of 27800.

With B5, the normalised SPOT signal, Boehringer light units (BLU); mean over the file's lines of this peptide was found to be 622.

Molecule B6 gave a normalised SPOT signal, Boehringer light units (BLU); mean over the file's lines of this peptide of 164.

For the molecule B7, the normalised SPOT signal, Boehringer light units (BLU); mean over the file's lines of this peptide is 295.

For the next assay, the target named is T5, Boi2 SH3 (BOI2_YEAST), P39969. The assay is described as follows: SPOT array.
The molecule B1 yielded a normalised SPOT signal, Boehringer light units (BLU); mean over the file's lines of this peptide of 26.3.

Turning to B2, the normalised SPOT signal, Boehringer light units (BLU); mean over the file's lines of this peptide worked out at 28.7.

With B3, the normalised SPOT signal, Boehringer light units (BLU); mean over the file's lines of this peptide amounted to 9.1.

On to B4, for which the normalised SPOT signal, Boehringer light units (BLU); mean over the file's lines of this peptide came to 16.7.

Molecule B5 returned a normalised SPOT signal, Boehringer light units (BLU); mean over the file's lines of this peptide of 108.

Consider B6, for which the normalised SPOT signal, Boehringer light units (BLU); mean over the file's lines of this peptide came to 13.9.

Molecule B7 had a normalised SPOT signal, Boehringer light units (BLU); mean over the file's lines of this peptide of 2.9.

The target of another assay is T6, Yhr016c SH3 (YSC84_YEAST), P32793. The experiment in a line: SPOT array.
The molecule B1 had a normalised SPOT signal, Boehringer light units (BLU); mean over the file's lines of this peptide of 44.3.

Take B2: the normalised SPOT signal, Boehringer light units (BLU); mean over the file's lines of this peptide amounted to 109.

Regarding B3, the normalised SPOT signal, Boehringer light units (BLU); mean over the file's lines of this peptide was found to be 37.4.

Molecule B4 registered a normalised SPOT signal, Boehringer light units (BLU); mean over the file's lines of this peptide of 11.2.

As to B5, the normalised SPOT signal, Boehringer light units (BLU); mean over the file's lines of this peptide was determined as 1120.

In turn, B6 came in with a normalised SPOT signal, Boehringer light units (BLU); mean over the file's lines of this peptide of 26.6.

B7 yielded a normalised SPOT signal, Boehringer light units (BLU); mean over the file's lines of this peptide of 20.9.
